In US8227212B2, “Cell that expresses a sulfatase and a formylglycine generating enzyme” (Shire Human Genetic Therapies, Inc., priority 2003, dated 2012):

Columns and labels:
ARSA, ARSC and ARSE = test: Co-expression of FGE (SUMF1) and sulfatase cDNAs in cell lines, sulfatase activities; assay type: cell-based, human; conditions: co-transfection with ARSA, ARSC and ARSE cDNAs in various cell lines
From the text: To test the effect of FGE (SUMF1) on additional sulfatase activities in normal cells we overexpressed ARSA (SEQ ID NO:14), ARSC (SEQ ID NO:18) and ARSE (SEQ ID NO:22) cDNAs in various cell lines with and without co-transfection of the FGE (SUMF1) cDNA and measured sulfatase activities.
To test for functional conservation of the FGE (SUMF1) gene during evolution we overexpressed ARSA, ARSC and ARSE cDNAs in various cell lines with and without co-transfection of the […] and measured sulfatase activities.

[1] = Biodistribution study of IV FGE-activated GALNS in ICR (normal) mice; assay type: in vivo; conditions: single IV injection of 5 mg/kg, two hours after injection
Method: Four-week-old ICR (normal) mice were given a single IV injection of 5 mg/kg FGE-activated GALNS. Liver, femur (bone), heart, kidney and spleen were collected two hours after injection and prepared for histological examination. A monoclonal anti-human GALNS antibody was used to detect the presence of injected GALNS in the various tissues. […] Moreover, GALNS was readily observed in all tissues examined using a horseradish-peroxidase reporter system, […].

MKI mice = test: Pharmacodynamic study in MKI mice (GALNS deficient, Morquio Knock-In); assay type: in vivo; conditions: weekly IV 2 mg/kg over 16 weeks
From the text: The primary cause of skeletal pathology in Morquio patients is keratan sulfate (KS) accumulation in epiphyseal disk (growth plate) chondrocytes due to deficiency of the lysosomal sulfatase, GALNS. The primary objective of in vivo research studies was to determine whether intravenously (IV) administered FGE-activated GALNS was able to penetrate chondrocytes of the growth plate as well as other appropriate cell types in normal mice.
Four-week-old MKI or wild-type mice were given weekly IV injections (n=8 per group) through 20 weeks of age. Each weekly injection consisted of either 2 mg/kg FGE-activated GALNS or vehicle control (no injection for wild-type mice). All mice were sacrificed for histological examination at 20 weeks of age and stained using the following methods: hematoxylin and eosin for cellular morphology, alcian blue for detection of GAGs.

B1: murine FGE (SUMF1): murine FGE (SUMF1) gene, mouse FGE ortholog (SEQ ID NO:49) (nucleic acid, listed as Mus musculus)
DNA: ATGGTCCCCATTCCTGCTGGAGTATTCACAATGGGCACTGATGATCCTCAGATCAGGCAGGATGGAGAAGCCCCTGCCAGGAGAGTCACTGTTGATGGCTTTTACATGGACGCCTATGAAGTCAGCAATGCGGATTTTGAGAAGTTTGTGAACTCGACTGGCTATTTGACAGAGGCTGAGAAGTTTGGAGACTCTTTCGTCTTTGAAGGCATGTTGAGCGAGCAAGTGAAAACGCATATCCACCAGGCAGTTGCAGCTGCTCCATGGTGGTTGCCTGTCAAGGGAGCTAATTGGAGACACCCAGAGGGTCCGGACTCCAGTATTCTGCACAGGTCAAATCATCCGGTTCTCCATGTTTCCTGGAACGATGCTGTTGCCTACTGCACATGGGCGGGCAAGAGGTTGCCTACTGAGGCAGAGTGGGAATACAGCTGTAGAGGAGGCCTGCAGAACAGGCTTTTCCCCTGGGGCAACAAACTGCAGCCCAAAGGACAGCATTATGCCAACATCTGGCAGGGCAAGTTTCCTGTGAGCAACACTGGCGAGGATGGCTTCCAAGGAACTGCCCCCGTTGATGCCTTTCCTCCCAATGGCTATGGCTTATACAACATAGTGGGGAATGTGTGGGAGTGGACCTCAGACTGGTGGACTGTTCACCATTCTGTTGAGGAAACGTTCAACCCAAAGGGTCCCACTTCTGGGAAAGACCGAGTGAAGAAGGGTGGATCCTACATGTGCCATAAGTCCTATTGCTATAGGTACCGCTGTGCAGCTCGAAGCCAGAACACACCAGATAGCTCTGCATCCAACCTGGGATTCCGATGTGCAGCCGACCACCTGCCCACCGCAGACTGA
activity of FGE homologs on overexpressed human sulfatases (ARSA, ARSC and ARSE): active on all three human sulfatases

B2: Drosophila FGE (SUMF1): Drosophila FGE (SUMF1) gene, fruitfly FGE ortholog (SEQ ID NO:51) (nucleic acid)
DNA: ATGACAACAATTATATTAGTCCTCTTTATTTGGATAGTTTTATTCAATGACGTATCCAGCGACTGTGGCTGCCAAAAGCTCGACCGGAAGGCCCCGGATATGCCGTCCATTTCCGGACAAGTGTGCCAGCAACGAGCACAGGGTGCACACAGCCACTACCGGGATTACTATGGCGAACTGGAGCCAAATATTGCGGACATGTCACTGCTTCCGGGAGGCACGGTTTACATGGGTACTGACAAACCGCACTTTCCGGCCGACCGCGAGGCTCCGGAACGGCAGGTGAAGCTGAATGACTTCTACATCGACAAGTATGAGGTTTCCAACGAAGCCTTTGCGAAGTTTGTTCTGCACACTAACTACACCACGGAGGCTGAGCGATATGGCGACAGTTTTCTGTTTAAGAGCCTTTTGAGCCCATTGGAGCAGAAGAACCTAGAGGACTTCCGAGTGGCGAGCGCTGTCTGGTGGTACAAAGTGGCCGGCGTGAACTGGCGACATCCAAATGGCGTGGACAGCGATATAGACCACTTAGGCCGACACCCGGTAGTGCACGTATCGTGGCGCGACGCTGTGGAGTACTGTAAGTGGGCCGGCAAGCGGTTGCCCAGCGAGGCGGAGTGGGAGGCGGCTTGCAGGGGCGGCAAGGAGCGCAAACTGTTTCCCTGGGGCAACAAGCTGATGCCAAGGAATGAACATTGGCTGAACATCTGGCAGGGAGACTTTCCCGATGGCAACCTGGCTGAAGATGGGTTTGAGTACACCAGCCCCGTGGATGCCTTCCGACAGAATATTTACGACCTGCACAACATGGTGGGCAACGTCTGGGAGTGGACGGCAGATCTGTGGGACGTAAATGACGTTAGCGATAATCCAAATCGGGTCAAGAAGGGCGGTTCTTATCTGTGTCACAAGTCCTACTGCTACAGGTACAGGTGCGCGGCACGCTCGCAGAACACAGAAGACAGTTCAGCCGGTAACCTGGGTTTTCGGTGCGCCAAGAATGCGTGA
modifications: Drosophila melanogaster
activity of FGE homologs on overexpressed human sulfatases (ARSA, ARSC and ARSE): less efficient

B3: FGE-activated GALNS: N-Acetylgalactosamine 6-Sulfatase (lysosomal sulfatase) activated by FGE, for enzyme replacement therapy of Morquio disease MPS IVA (protein)
chain: APQPPNILLLLMDDMGWGDLGVYGEPSRETPNLDRMAAEGLLFPNFYSANPLCSPSRAALLTGRLPIRNGFYTTNAHARNAYTPQEIVGGIPDSEQLLPELLKKAGYVSKIVGKWHLGHRPQFHPLKHGFDEWFGSPNCHFGPYDNKARPNIPVYRDWEMVGRYYEEFPINLKTGEANLTQIYLQEALDFIKRQARHHPFFLYWAVDATHAPVYASKPFLGTSQRGRYGDAVREIDDSIGKILELLQDLHVADNTFVFFTSDNGAALISAPEQGGSNGPFLCGKQTTFEGGMREPALAWWPGHVTAGQVSHQLGSIMDLFTTSLALAGLTPPSDRAIDGLNLLPTLLQGRLMDRPIFYYRGDTLMAATLGQHKAHFWTWTNSWENFRQGIDFCPGQNVSGVTTHNLEDHTKLPLIFHLGRDPGERFPLSFASAEYQEALSRITSVVQQHQEALVPAQPQLNVCNWAVMNWAPPGCEKLGKCLTPPESIPKKCLWSH
GALNS delivery to bone growth plate chondrocytes (FITC reporter system) [1]: observed in all growth plate sections examined
presence of injected GALNS in tissues (monoclonal anti-human GALNS antibody) ([1]; liver, femur (bone), heart, kidney and spleen): detected in all tissues examined
chondrocytes in the calcification zone of the growth plate (MKI mice): reduction of vacuolization
vacuolized chondrocytes of the hypertrophic and proliferating zones of the growth plate (MKI mice): unaffected
clearance of accumulated GAG (alcian blue staining) (MKI mice; soft tissues (liver, heart, kidney and spleen)): reduced or absent alcian blue staining
